The values that follow come from publication PMC6021111, “Murine leukemia virus p12 tethers the capsid-containing pre-integration complex to chromatin by binding directly to host nucleosomes in mitosis” (PLoS Pathogens, 2018).

The test system of this test is GST-p12_WT. The test can be described thus: SILAC-MS of proteins enriched with GST-p12_WT relative to GST. Format: binding, Mo-MLV. The following applies: for SDs from the mean: log2(GST-p12_WT, Heavy/GST, Light). An excerpt: To test whether GST-p12 was acting like the p12 region of Gag, we used a global proteomic approach based on stable isotope labelling by amino acids in cell culture (SILAC)-mass spectrometry (MS) to look for host proteins that interact with GST-p12 [35, 36]. A schematic diagram of the workflow is illustrated in Fig 4A. Briefly, GST, GST-p12_mut14 and GST-p12_WT were transiently-expressed in 293T cells cultured in light (R0/K0), medium (R6/K4) and heavy (R10/K8) SILAC media, respectively. Next, lysates of nocodazole treated transfected cells were prepared, normalised and used for parallel pull-down assays with glutathione-sepharose beads. The eluates from the beads were then pooled in a 1:1:1 ratio and subjected to LC-MS/MS analysis. The experiment was performed using biological replicates to test reproducibility of the mass-spec hits. The pull-down assays for this experiment were performed using mitotic cell lysates to facilitate identification of any potential chromatin interactions that were previously missed.
After removal of obvious contaminants (e.g. keratin) and non-quantified hits, 948 and 879 proteins were identified in replicates 1 and 2 (R1 and R2) of the experiment respectively (the false discovery rate (FDR) was set at 5%). To select proteins enriched in the heavy-labelled (H) GST-p12_WT sample relative to the light-labelled (L) GST sample, we compared the log2(H/L) silac ratios of the mass-spectrometry hits. When plotted as a frequency distribution, the log2(H/L) ratios of each replicate fitted well to a normal distribution curve (R^2 ≥ 0.98), allowing the mean and standard deviation to be accurately estimated (Fig 4B). In this experiment, contaminants/non-specifically bound cellular proteins were assumed to cluster around the mean of the distribution. […] Twenty one such proteins were identified in R1 and 22 identified in R2 (Fig 4B Venn diagram). […] These proteins were then ranked based on normalised abundance in the group. In mass-spectrometry analysis, larger proteins are in general assigned higher scores. Therefore, to control for protein size, we divided the number of peptide spectral matches identified for each protein with its length and then normalised the values across the group (Fig 4C and 4D). When ranked this way, the clathrin heavy chain (CLTC), clathrin interactor 1 (CLINT1) and NEDD4-like E3 ubiquitin ligase (WWP2) were identified as the top three hits. […] The function of clathrin in MLV infection is unclear. […] Thus, clathrin binding may be relevant to the early stages of MLV replication and should be investigated further.
For SILAC-MS experiments, 293T cells were grown is media containing light (R0K0, ^12C-Arginine and ^12C-Lysine), medium (R6K4, ^13C-Arginine and Lysine-4,4,5,5-d4) or heavy (R10K8, ^13C+^15N-Arginine and ^13C+^15N-Lysine) versions of L-Arginine and L-Lysine amino acids (Pierce) for a minimum of 6 doublings before transient expression of GST-p12 proteins. After performing the glutathione-sepharose pull-down assays equivalent volumes of the beads eluates were pooled and submitted to the Bristol University Proteomics Facility for RP nano-LC-MS/MS analysis. This analysis was performed on an LTQ-Orbitrap Velos mass spectrometer in line with a Dionex Ultimate 3000 nanoHPLC system as described in [53].
Supplementary file ppat.1007117.s005.xlsx: S1 Table Results from the first SILAC-MS analysis. GST, Mo-MLV GST-p12_mut14 or GST-p12_WT were transiently-expressed in 293T cells cultured in light (R0/K0), medium (R6/K4) and heavy (R10/K8) SILAC media, respectively. Mitotic cell lysates were subsequently used for glutathione-sepharose bead pull-down assays. Bead eluates were pooled in a 1:1:1 ratio and then analysed by LC-MS/MS. […] (XLSX) Click here for additional data file.

B1: Clathrin light chain A: P09496 (protein)
chain: MAELDPFGAPAGAPGGPALGNGVAGAGEEDPAAAFLAQQESEIAGIENDEAFAILDGGAPGPQPHGEPPGGPDAVDGVMNGEYYQESNGPTDSYAAISQVDRLQSEPESIRKWREEQMERLEALDANSRKQEAEWKEKAIKELEEWYARQDEQLQKTKANNRVADEAFYKQPFADVIGYVTNINHPCYSLEQAAEEAFVNDIDESSPGTEWERVARLCDFNPKSSKQAKDVSRMRSVLISLKQAPLVH
For B1, under “Replicate 1”, the “Normalised (PSMs/Length)” value was 7.412, the PSMs worked out at 2 and the PSMs/Length was determined as 0.008065. For the same molecule, where the note is “Replicate 2”, the “Normalised (PSMs/Length)” value came to 7.2207, the PSMs is 2, the PSMs/Length is on record as 0.008065 and the “SDs from the mean” value amounted to 7.68.

B2: Clathrin interactor 1: Q14677 (protein)
chain: MLNMWKVRELVDKATNVVMNYSEIESKVREATNDDPWGPSGQLMGEIAKATFMYEQFPELMNMLWSRMLKDNKKNWRRVYKSLLLLAYLIRNGSERVVTSAREHIYDLRSLENYHFVDEHGKDQGINIRQKVKELVEFAQDDDRLREERKKAKKNKDKYVGVSSDSVGGFRYSERYDPEPKSKWDEEWDKNKSAFPFSDKLGELSDKIGSTIDDTISKFRRKDREDSPERCSDSDEEKKARRGRSPKGEFKDEEETVTTKHIHITQATETTTTRHKRTANPSKTIDLGAAAHYTGDKASPDQNASTHTPQSSVKTSVPSSKSSGDLVDLFDGTSQSTGGSADLFGGFADFGSAAASGSFPSQVTATSGNGDFGDWSAFNQAPSGPVASSGEFFGSASQPAVELVSGSQSALGPPPAASNSSDLFDLMGSSQATMTSSQSMNFSMMSTNTVGLGLPMSRSQNTDMVQKSVSKTLPSTWSDPSVNISLDNLLPGMQPSKPQQPSLNTMIQQQNMQQPMNVMTQSFGAVNLSSPSNMLPVRPQTNALIGGPMPMSMPNVMTGTMGMAPLGNTPMMNQSMMGMNMNIGMSAAGMGLTGTMGMGMPNIAMTSGTVQPKQDAFANFANFSK
With B2, under “Replicate 1”, the “Normalised (PSMs/Length)” value was 26.4693, the PSMs worked out at 18 and the PSMs/Length amounted to 0.0288. Further, where the note is “Replicate 2”, the “Normalised (PSMs/Length)” value is 22.9214, the PSMs amounted to 16, the PSMs/Length stood at 0.0256 and the “SDs from the mean” value was 13.1531.
